Laboratory results from PMC11933459 (Nature Communications, 2025).
Changes are numbered by the printed parent chain. Names and notes keep the numbering of the source.

B1: Full-length human XPR1 (wild type), purified, tags removed (natural protein, UniProt Q9UBH6 1-696, looked up)
chain: MKFAEHLSAHITPEWRKQYIQYEAFKDMLYSAQDQAPSVEVTDEDTVKRYFAKFEEKFFQTCEKELAKINTFYSEKLAEAQRRFATLQNELQSSLDAQKESTGVTTLRQRRKPVFHLSHEERVQHRNIKDLKLAFSEFYLSLILLQNYQNLNFTGFRKILKKHDKILETSRGADWRVAHVEVAPFYTCKKINQLISETEAVVTNELEDGDRQKAMKRLRVPPLGAAQPAPAWTTFRVGLFCGIFIVLNITLVLAAVFKLETDRSIWPLIRIYRGGFLLIEFLFLLGINTYGWRQAGVNHVLIFELNPRSNLSHQHLFEIAGFLGILWCLSLLACFFAPISVIPTYVYPLALYGFMVFFLINPTKTFYYKSRFWLLKLLFRVFTAPFHKVGFADFWLADQLNSLSVILMDLEYMICFYSLELKWDESKGLLPNNSEESGICHKYTYGVRAIVQCIPAWLRFIQCLRRYRDTKRAFPHLVNAGKYSTTFFMVTFAALYSTHKERGHSDTMVFFYLWIVFYIISSCYTLIWDLKMDWGLFDKNAGENTFLREEIVYPQKAYYYCAIIEDVILRFAWTIQISITSTTLLPHSGDIIATVFAPLEVFRRFVWNFFRLENEHLNNCGEFRAVRDISVAPLNADDQTLLEQMMDQDDGVRNRQKNRSWKYNQSISLRRPRLASQSKARDTKVLIEDTDDEANT
B2: XPR1-E622A/F623A mutant (full-length human XPR1), purified, tags removed (natural protein, UniProt Q9UBH6 1-696, looked up)
chain: B1 chain with E622A, F623A

Legend:
cryo-EM structure [1] = biological target: the molecule itself; experiment: cryo-EM structure
cryo-EM structure [2] = biological target: the molecule itself; experiment: cryo-EM structure; remark: listed apart in the source

Protein | stoichiometry N (cryo-EM structure [1]) | binding result (cryo-EM structure [2])
B1 | 2 | –
B2 | – | binds
